Assay: soluble on expression in E. coli; label from the status in PepcDB or PDB records

Sequence | soluble on expression in E. coli
MASNYNSGLKIGAWVGTQPSESAIKSFQELQGRKLDIVHQFINWSTDFSWVRPYADAVYNNGSILMITWEPWEYNTVDIKNGKADAYITRMAQDMKAYGKEIWLRPLHEANGDWYPWAIGYSSRVNTNETYIAAFRHIVDIFRANGATNVKWVFNVNCDNVGNGTSYLGHYPGDNYVDYTSIDGYNWGTTQSWGSQWQSFDQVFSRAYQALASINKPIIIAEFASAEIGGNKARWITEAYNSIRTSYNKVIAAVWFHENKETDWRINSSPEALAAYREAIGALEHHHHHH | soluble
MREVKLVTFDVWNTLLDLNIMLDEFSHQLAKISGLHIKDVANAVIEVRNEIKKMRAQASEDPRKVLTGSQEALAGKLKVDVELVKRATARAILNVDESLVLEGTKEALQFVKERGLKTAVIGNVMFWPGSYTRLLLERFGLMEFIDKTFFADEVLSYKPRKEMFEKVLNSFEVKPEESLHIGDTYAEDYQGARKVGMWAVWINQEGDKVRKLEERGFEIPSIANLKDVIELISKT | soluble
MSTELIAAVEAADSAEGLVRAVAALSAARTDAAIPTLISVLAFNNPGAAVVAVDGLIQLGSPAAQAILNNLDDYNYGARAWALRALAGIGEPAALPLLLSAAREDFSLSVRRAATYGLGRVRWADLSESDRLAQQQQCYETLKLCLQYDPEWVVRYAAAAALETLAPAATQLQSAIAETLNRQAHSDEERAVQARSRLAERRLAGGVLEHHHHHH | soluble
HRPKRIESAVISSFSPVINSPMRDYLGKGLDHLATHSRYDMGRLINDTIGKHLPSLFKRFNYRHVSTLDGHEYDQMHYHFSQILELDPDNYLTAGQQIKAPVLFINGAWDEYTSASDATQFSRYLQNCSFSTIEATGHFLDMEHKAACNDSKQALMKFLQ | not soluble
MSNFEKKYILELNDALSHLNHNSTSFDLLKVLISWLSNDIVIDKFKILGYDFSKYIEMNPDDYPVEKSILNREEIIYLKNNIYRKISSGNFKFQYFVQYIRDILEYLFIEHIERVCPYCEWGEMQKLEEQNTHETVYLCTQCGCAFYNDNSQFLLKTPLTIPMKRDEFK | not soluble
MAYRDQPLGELALSIPRASALFRKYDMDYCCGGKQTLARAAARKELDVEVIEAELAKLAEQPIEKDWRSAPLAEIIDHIIVRYHDRHREQLPELILQATKVERVHADKPSVPKGLTKYLTMLHEELSSHMMKEEQILFPMIKQGMGSQAMGPISVMESEHDEAGELLEVIKHTTNNVTPPPEACTTWKAMYNGINELIDDLMDHISLENNVLFPRALAGE | not soluble
MIARPTPALGPTPIPRGGGILPRMDRIVIRGAREHNLKNISLELPRGKFIVITGVSGSGKSTLAFDTIYAEGQRRYVESLSSYARQFLGVMDKPEVESIEGLSPAISIDQKTTSHNPRSTVGTVTEIHDYLRLLFARVGQAFCPECGRPIEKQSASEITDRLLKRPPGTRAILMAPLVRGRKGEYRKLFQQLLKEGYARVRVDGVIYLLEEAQGLSLEKYEKHDIDLVIDRVVLKEEERPRIAEAVELALLRGEGLLRVLYPDTGEEELFSEKFACPEHGSVLEELEPRIFSFNSPYGACPACSGLGYRQEFDPELVVNPELSLAEGAILPWSRGRDTGRSYLWDRLRALAEHLGFDLKTPFKDLPEEAKRAVLYGLPEPFEVVFRRGGKETFRVEVRYEGVIPWLEKRYQESDSEGVREALEGFMSLRPCPACGGTRYKREVLSVKVAGRNIAEVSALPVREALAFFQGLEKTLPPFQAQIARPILREIVERLGFLVDVGLDYLTLDRAANTLSGGEAQRIRLATQVGSGLTGVLYVLDEPSIGLHPRDNQRLIRTLKRLRDLGNTLIVVEHDEETMRAADWIVDMGPGAGIHGGEVVAQGTLEDILKSPQSLTGAYLRGEKRIPVPKERRKGNGKWLVLKGARAHNLKNVTLRIPLGRFVAITGPSGSGKSTLVHDVLYAALAQRLMRAKTTPGPYEALEGVEHLDKVIEIDQSPIGRTPRSNPATYTGVFDEIRDLFAKTPEARKRGYGPGRFSFNVKGGRCEACGGDGTVKIEMLFLPDLYVPCEVCKGKRYNKETLEVKLRGKSIADVLDMTVEEALDFFQNVPSIARKLQLMVDVGLGYMKLGQPSPTLSGGEAQRIKLATELGRKATGRTLYILDEPTTGLHFDDVAKLLSVLHRLVDAGNTVVVIEHNLDVVKTADWVIDLGPEGGDRGGEIVAEGTPEEVALTGSPTGAFLARIPEIAARIGVAAD | soluble

Source: the DeepSol protein solubility set
